In patent publication US20120090043A1, “TARGETS FOR RETROVIRUS ASSOCIATED DISEASES” (priority 2009, published 2012) one finds HTLV_LTR transactiv. data, which are given here for eleven molecules.

To fix the notation:
B1: CCDC24: human host interactor protein, Gene ID 149473, expressed from transfected ORF vector (protein)
chain: MLRHSPSLWELVEEHVPLRERREVKRILGEAAVDLSLELRAEVAMLRALLQEARSSQAPSSRPISDPSSLLAPPPLLKDLLRQELRQLLQGLRHKAICEGRDQAQAWVQYSPRVLHFALEEPRCDLPEQEIFQMRGGGPSSGHRDLSIIKDQLNVSNIDQVARHLRGLLEEECHTLEREILILQRCLEEEYLRPCHPSEAALEPTLAELKEQKKAMEQELQASVGPSCVSPNHRQRPLGSSTQGLRPPLPLCGVAPLQCCLPAPPLEPYLRPRGQSATHRWGRQLQCSPREGPASTPMSSAAPQAPA
B2: DGCR6L: human host interactor protein, Gene ID 85359, expressed from transfected ORF vector (protein)
chain: MERYAAALEEVADGARQQERHYQLLSALQSLVKELPSSFQQRLSYTTLSDLALALLDGTVFEIVQGLLEIQHLTEKSLYNQRLRLQNEHRVLRQALRQKHQEAQQACRPHNLPVVQAAQQRELEAVEHRIREEQRAMDQKIILELDRKVADQQSTLEKAGVAGFYVTTNPQELMLQMNLLELIRKLQQRGCRAGNAALGLGGPWQSPAAQCDQKGSPVPP
B3: FLJ10726: human host interactor protein, Gene ID 55216, expressed from transfected ORF vector (protein)
chain: MSRIPLGKVLLRNVIRHTDAHNKIQEESDMWKIRELEKQMEDAYRGTKRKMLPSSSSRMRSDGFDEESQRYYWRPKNEISGTLEDDFLKAKSWNKKFYDYEANMPDRWGHSGYKELYPEEFETDSDQQDITNGKKTSPQVKSSTHESRKHKKSKKSHKKKQKKRSHKKQKKSKKEATDITADSSSEFSEETGASGTRKGKQPHKRKKKSRKKSLKKPALFLEAESNTSHSDDSASSSSEESEERDTKKTKRKKREKKAHTSVANNEIQERTNKRTNWKVATDERSAESSEDD
B4: C1orf94: human host interactor protein, Gene ID 84970, expressed from transfected ORF vector (protein)
chain: MRGGGGCVLALGGQRGFQKERRRMASGNGLPSSSALVAKGPCALGPFPRYIWIHQDTPQDSLDKTCHEIWKRVQGLPEASQPWTSMEQLSVPVVGTLRGNELSFQEEALELSSGKDEISLLVEQEFLSLTKEHSILVEESSGELEVPGSSPEGTRELAPCILAPPLVAGSNERPRASIIVGDKLLKQKVAMPVISSRQDCDSATSTVTDILCAAEVKSSKGTEDRGRILGDSNLQVSKLLSQFPLKSTETSKVPDNKNVLDKTRVTKDFLQDNLFSGPGPKEPTGLSPFLLLPPRPPPARPDKLPELPAQKRQLPVFAKICSKPKADPAVERHHLMEWSPGTKEPKKGQGSLFLSQWPQSQKDACGEEGCCDAVGTASLTLPPKKPTCPAEKNLLYEFLGATKNPSGQPRLRNKVEVDGPELKFNAPVTVADKNNPKYTGNVFTPHFPTAMTSATLNQPLWLNLNYPPPPVFTNHSTFLQYQGLYPQQAARMPYQQALHPQLGCYSQQVMPYNPQQMGQQIFRSSYTPLLSYIPFVQPNYPYPQRTPPKMSANPRDPPLMAGDGPQYLFPQGYGFGSTSGGPLMHSPYFSSSGNGINF
B5: DHRS10: human host interactor protein, Gene ID 51171, expressed from transfected ORF vector (protein)
chain: MATGTRYAGKVVVVTGGGRGIGAGIVRAFVNSGARVVICDKDESGGRALEQELPGAVFILCDVTQEDDVKTLVSETIRRFGRLDCVVNNAGHHPPPQRPEETSAQGFRQLLELNLLGTYTLTKLALPYLRKSQGNVINISSLVGAIGQAQAVPYVATKGAVTAMTKALALDESPYGVRVNCISPGNIWTPLWEELAALMPDPRATIREGMLAQPLGRMGQPAEVGAAAVFLASEANFCTGIELLVTGGAELGYGCKASRSTPVDAPDIPS
B6: FLJ22471: human host interactor protein, Gene ID 80212, expressed from transfected ORF vector (protein)
chain: MTSPHFSSYDEGPLDVSMAATNLENQLHSAQKNLLFLQREHASTLKGLHSEIRRLQQHCTDLTYELTVKSSEQTGDGTSKSSELKKRCEELEAQLKVKENENAELLKELEQKNAMITVLENTIKEREKKYLEELKAKSHKLTLLSSELEQRASTIAYLTSQLHAAKKKLMSSSGTSDASPSGSPVLASYKPAPPKDKLPETPRRRMKKSLSAPLHPEFEEVYRFGAESRKLLLREPVDAMPDPTPFLLARESAEVHLIKERPLVIPPIASDRSGEQHSPAREKPHKAHVGVAHRIHHATPPQAQPEVKTLAVDQVNGGKVVRKHSGTDRTV
B7: DAZAP2: human host interactor protein, Gene ID 9802, expressed from transfected ORF vector (protein)
chain: MNSKGQYPTQPTYPVQPPGNPVYPQTLHLPQAPPYTDAPPAYSELYRPSFVHPGAATVPTMSAAFPGASLYLPMAQSVAVGPLGSTIPMAYYPVGPIYPPGSTVLVEGGYDAGARFGAGATAGNIPPPPPGCPPNAAQLAVMQGANVLVTQRKGNFFMGGSDGGYTIW
B8: DIPA: human host interactor protein, Gene ID 11007, expressed from transfected ORF vector (protein)
chain: MEAEAGGLEELTDEEMAALGKEELVRRLRREEAARLAALVQRGRLMQEVNRQLQGHLGEIRELKQLNRRLQAENRELRDLCCFLDSERQRGRRAARQWQLFGTQASRAVREDLGGCWQKLAELEGRQEELLRENLALKELCLALGEEWGPRGGPSGAGGSGAGPAPELALPPCGPRDLGDGSSSTGSVGSPDQLPLACSPDD
B9: FATE1: human host interactor protein, Gene ID 89885, expressed from transfected ORF vector (protein)
chain: MAGGPPNTKAEMEMSLAEELNHGRQGENQEHLVIAEMMELGSRSRGASQKKQKLEQKAAGSASAKRVWNMTATRPKKMGSQLPKPRMLRESGHGDAHLQEYAGNFQGIRFHYDRNPGTDAVAQTSLEEFNVLEMEVMRRQLYAVNRRLRALEEQGATWRHRETLIIAVLVSASIANLWLWMNQ
B10: HSFY1: human host interactor protein, Gene ID 86614, expressed from transfected ORF vector (protein)
chain: MAHVSSETQDVSPKDELTASEASTRSPLCEHTFPGDSDLRSMIEEHAFQVLSQGSLLESPSYTVCVSEPDKDDDFLSLNFPRKLWKIVESDQFKSISWDENGTCIVINEELFKKEILETKAPYRIFQTDAIKSFVRQLNLYGFSKIQQNFQRSAFLATFLSEEKESSVLSKLKFYYNPNFKRGYPQLLVRVKRRIGVKNASPISTLFNEDFNKKHFRAGANMENHNSALAAEASEESLFSASKNLNMPLTRESSVRQIIANSSVPIRSGFPPPSPSTSVGPSEQIATDQHAILNQLTTIHMHSHSTYMQARGHIVNFITTTTSQYHIISPLQNGYFGLTVEPSAVPTRYPLVSVNEAPYRNMLPAGNPWLQMPTIADRSAAPHSRLALQPSPLDKYHPNYN
B11: KIAA1949: human host interactor protein, Gene ID 170954, expressed from transfected ORF vector (protein)
chain: MATIPDWKLQLLARRRQEEASVRGREKAERERLSQMPAWKRGLLERRRAKLGLSPGEPSPVLGTVEAGPPDPDESAVLLEAIGPVHQNRFIRQERQQQQQQQQRSEELLAERKPGPLEARERRPSPGEMRDQSPKGRESREERLSPRETRERRLGIGGAQELSLRPLEARDWRQSPGEVGDRSSRLSEAWKWRLSPGETPERSLRLAESREQSPRRKEVESRLSPGESAYQKLGLTEAHKWRPDSRESQEQSLVQLEATEWRLRSGEERQDYSEECGRKEEWPVPGVAPKETAELSETLTREAQGNSSAGVEAAEQRPVEDGERGMKPTEGWKWTLNSGKAREWTPRDIEAQTQKPEPPESAEKLLESPGVEAGEGEAEKEEAGAQGRPLRALQNCCSVPSPLPPEDAGTGGLRQQEEEAVELQPPPPAPLSPPPPAPTAPQPPGDPLMSRLFYGVKAGPGVGAPRRSGHTFTVNPRRSVPPATPATPTSPATVDAAVPGAGKKRYPTAEEILVLGGYLRLSRSCLAKGSPERHHKQLKISFSETALETTYQYPSESSVLEELGPEPEVPSAPNPPAAQPDDEEDEEELLLLQPELQGGLRTKALIVDESCRR

In the assay the test system is HTLV-1 LTR promoter transactivation by HTLV-1 Tax. In words: Transactivation assay, HTLV-1 LTR luciferase reporter with HTLV-1 Tax. The assay is classed as cell-based. The note with it: HEK293 cells co-transfected with pHTLV1LTR-Luc, HTLV-1 Tax and the human ORF; relative luciferase activity 24 h post-transfection; positive if >=2 or <=0.5 and p<0.05. From the text:
Twenty-four hours post-transfection, cells were washed three times with PBS, lysed and luciferase activities determined from two independent transfection experiments in triplicate. We computed a paired t-test to assess the difference of the means between samples with and without the human interactor. For a trial to be considered positive, the relative luciferase activities has to be >=2 or <=0.5, and the p-value of the t-test<0.05.
Expression vectors encoding human ORFs and HIV-1 Tat or HTLV-1 Tax proteins were tested in a transactivation reporter assay against reporter plasmids harboring HIV-1 or HTLV-1 viral promoter sequences cloned upstream of the luciferase reporter gene. […] Wherever not expressly specified, constructs used herein were generally made by sub-cloning entry clones from the ORFeome V3.1 into suitable destination vectors.
A general note: Reporter assays use an easily measured gene product as a stand-in for the process of interest.
B1 returned an HTLV_LTR transactiv. of 2.88 fold change. Consider B2, for which the HTLV_LTR transactiv. turned out to be 0.24 fold change. Next, B3: 0.19 fold change; B4: 0.41 fold change. Take B5: the HTLV_LTR transactiv. is reported as 0.41 fold change.

As to B6, the HTLV_LTR transactiv. stood at 2.25 fold change.

On to B7, for which the HTLV_LTR transactiv. amounted to 3.31 fold change. Next, B8: 0.28 fold change; B9: 0.49 fold change; B10: 0.43 fold change. Turning to B11, the HTLV_LTR transactiv. was found to be 0.35 fold change.
